Data: patent US6867003
One block for each substance: values may come before it.

Target: insulin receptor partially purified from CHO-IR cells (Chinese Hamster Ovary cells expressing high levels of insulin receptors of human origin) (human) (UniProt P06213)
Assay: cell-based or functional assay

Sequence of GST-PIR+SH2 of rGrb14 (O88900 353-538): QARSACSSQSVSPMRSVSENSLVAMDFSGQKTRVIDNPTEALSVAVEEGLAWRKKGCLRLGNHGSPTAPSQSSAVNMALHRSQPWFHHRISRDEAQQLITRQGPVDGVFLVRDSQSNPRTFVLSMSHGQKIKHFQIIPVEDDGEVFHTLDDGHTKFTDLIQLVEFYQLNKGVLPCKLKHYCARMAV
Sequence of GST-rGrb14 (O88900 whole entry): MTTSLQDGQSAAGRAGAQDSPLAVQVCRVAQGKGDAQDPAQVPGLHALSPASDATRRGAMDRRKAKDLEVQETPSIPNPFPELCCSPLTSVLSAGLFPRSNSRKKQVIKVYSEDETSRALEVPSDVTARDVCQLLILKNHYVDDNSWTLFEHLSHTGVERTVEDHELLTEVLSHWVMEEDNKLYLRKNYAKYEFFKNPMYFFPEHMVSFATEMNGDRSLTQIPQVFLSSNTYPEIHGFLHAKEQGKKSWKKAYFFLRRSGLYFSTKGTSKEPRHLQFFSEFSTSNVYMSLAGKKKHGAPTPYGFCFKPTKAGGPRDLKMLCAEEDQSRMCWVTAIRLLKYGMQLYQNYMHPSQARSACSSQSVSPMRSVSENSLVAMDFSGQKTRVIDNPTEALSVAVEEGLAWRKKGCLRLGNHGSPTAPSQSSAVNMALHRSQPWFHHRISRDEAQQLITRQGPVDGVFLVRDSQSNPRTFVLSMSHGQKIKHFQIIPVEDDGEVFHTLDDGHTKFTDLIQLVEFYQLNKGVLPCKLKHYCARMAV

- amount giving total inhibition of the tyrosine kinase activity of the insulin receptors: 0.3 µg
Substance: GST-PIR of rGrb14 (from UniProt O88900 353-436)

- amount giving the maximum inhibitory effect on the tyrosine kinase activity of the insulin receptors: 0.03 µg
Substance: GST-PIR+SH2 of rGrb14 (from UniProt O88900 353-538)

- maximum inhibition of the tyrosine kinase activity of the insulin receptors: 40%
Substance: GST-rGrb7 (from UniProt Q9QZC5 1-535)

- amount giving 50% inhibition of the tyrosine kinase activity of the receptors (32P incorporation into poly Glu-Tyr): 0.04 µg
Substance: GST-rGrb14 (from UniProt O88900 1-538)
